Measurements published in patent US20240209093A1 (I MAB BIOPHARMA, published 2024).
Values belong to the binder of their own block, whether it stands above or below them.

Assays:
[1] = target: T1, human PD-L1 on cells (human, UniProt Q9NZQ7 19-290); assay: flow cytometry on Raji cells overexpressing human PD-L1, PE-anti-hu IgG
T1 construct: whole, on cells; also called Raji cells overexpressing human PD-L1; Raji-PD-L1 cells
Procedure: Binding capability of the anti-PD-L1 antibody of the present application was further evaluated by using Raji cells overexpressing human PD-L1. Briefly, 50 μl Raji cells overexpressing human PD-L1 were seeded into 96 well plate at a concentration of 2*10⁵ cells/well. […] Then the cells were washed twice by FACS buffer and supplemented with 100 μl PE-anti-hu IgG, followed by incubation on ice for 1 hour. After incubation, the cells in each well were collected and resuspended with 65 μl FACS buffer for analysis by flow cytometry.

[2] = target: T2, human PD-L1-his (human, UniProt Q9NZQ7 19-238); assay: ELISA, plate coated with human His-PD-L1, detection goat anti-human IgG Fc HRP
T2 construct: also called hPD-L1-his; human His-PD-L1
T2 sequence (Q9NZQ7 19-238 limits assumed): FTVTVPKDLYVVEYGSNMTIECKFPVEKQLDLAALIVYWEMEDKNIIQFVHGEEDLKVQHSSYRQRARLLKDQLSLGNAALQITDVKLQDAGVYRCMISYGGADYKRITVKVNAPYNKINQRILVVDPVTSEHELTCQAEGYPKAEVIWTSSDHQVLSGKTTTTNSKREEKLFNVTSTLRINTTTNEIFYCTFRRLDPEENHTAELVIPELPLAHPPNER
Source text: Binding properties of the humanized anti-PD-L1 antibody of the present application were first evaluated by ELISA assay.

[3] = target: T2, human PD-L1-his; assay: SPR, Biacore T200, antibody captured on protein A chip, hPD-L1-his 6.25-100 nM as analyte
Procedure: The binding affinity of the PD-L1/TIGIT bsAb to recombinant human his-tagged PD-L1 protein was tested by BIACORE®. […] A series of dilutions of human PD-L1 protein (6.25 nM-100 nM) were injected over captured antibody at a flow rate of 10 μL/min. The antigen was allowed to associate for 180 s and dissociate for 1200 s. All the experiments were carried out on a Biacore T200. Data analysis was carried out using Biacore T200 evaluation software.

[4] = target: T2, human PD-L1-his; assay: SPR, Biacore, full kinetics, antigen 100-1.5625 nM
[5] = target: T1, human PD-L1 on cells; assay: flow cytometry on RKO cells (endogenous CD47 and PD-L1), APC-labelled secondary antibody
Procedure: (§1) RKO cells are human colon carcinoma cell lines that express endogenous level of human CD47 and human PD-L1 on the surface. RKO cells were incubated with serial diluted anti-CD47/PD-L1 bispecific antibodies, parental CD47 or PD-L1 monospecific antibodies at 4° C. for 30 minutes. Then cells were washed with FACS buffer three times, followed by incubation with APC-labeled secondary antibody at 4° C. for 30 minutes. Then cells were washed with FACS buffer for three times. Binding was measured by flow cytometry.

[6] = target: T2, human PD-L1-his; assay: ELISA, plate coated with human His-PD-L1, detection goat anti-human IgG Fc HRP [panel A]
Source text: (§2) Binding of the anti-PD-L1/TIGIT bsAb molecules with human PD-L1 was further analyzed by ELISA.

[7] = target: T1, human PD-L1 on cells; assay: flow cytometry on Raji cells overexpressing human PD-L1, PE-anti-hu IgG [panel C]
Procedure: Furthermore, binding capability of the anti-PD-L1/TIGIT bsAbs of the present application with cells expressing PD-L1 was analyzed by using Raji-PD-L1 cells. Briefly, 50 μl Raji cells overexpressing human PD-L1 were seeded into 96 well plate with 2*10⁵ cells/well.

[8] = target: T2, human PD-L1-his; assay: ELISA, plate coated with human His-PD-L1, detection goat anti-human IgG Fc HRP [panel B]
Source text: as §2

[9] = target: T1, human PD-L1 on cells; assay: flow cytometry on RKO cells, which carry both human CD47 and human PD-L1; APC-labelled secondary antibody; signal not resolved between the two arms
Procedure: as §1

[10] = target: T3, Tag1-CD47 (UniProt Q08722 19-139); assay: HTRF CD47/SIRPα binding assay (Cisbio): blocking of Tag2-SIRPa binding to Tag1-CD47; axis numbers -3 to 3 read as log10 of nM
T3 construct: Bought kit reagent
T3 sequence (Q08722 19-139 limits assumed): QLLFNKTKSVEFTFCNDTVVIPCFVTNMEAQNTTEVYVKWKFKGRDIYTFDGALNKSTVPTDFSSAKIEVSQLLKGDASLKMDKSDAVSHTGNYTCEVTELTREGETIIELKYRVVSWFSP
Source text: Fluorescence data were read on a PerkinElmer Envision plate reader using laser as light source.

[11] = target: T4, His-tagged human TIGIT-ECD protein (human, UniProt Q495A1 22-141); assay: ELISA on His-tagged human TIGIT
T4 construct: extracellular domain; also called hTIGIT-his
T4 sequence (looked up): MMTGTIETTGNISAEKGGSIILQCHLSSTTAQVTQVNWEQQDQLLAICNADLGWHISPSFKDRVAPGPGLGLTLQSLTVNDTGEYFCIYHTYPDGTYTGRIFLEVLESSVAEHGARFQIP

T1 sequence (Q9NZQ7 19-290): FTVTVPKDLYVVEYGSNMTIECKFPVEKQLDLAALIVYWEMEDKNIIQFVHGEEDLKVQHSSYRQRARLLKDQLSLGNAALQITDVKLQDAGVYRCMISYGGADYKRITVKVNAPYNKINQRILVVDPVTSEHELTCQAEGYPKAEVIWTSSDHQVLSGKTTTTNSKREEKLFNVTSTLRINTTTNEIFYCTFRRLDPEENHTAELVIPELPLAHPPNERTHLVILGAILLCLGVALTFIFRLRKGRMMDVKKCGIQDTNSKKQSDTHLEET

EC50 (read off the curve) [1]: ~0.4 nM | EC50 (read off the curve) [2]: ~0.02 nM | Kd [3]: 3.64 nM | koff [3]: 0.000128 s⁻¹ | kon [3]: 35300 M⁻¹ s⁻¹ | Kd [4]: 2.06 nM | koff [4]: 0.000197 s⁻¹ | kon [4]: 95900 M⁻¹ s⁻¹ | EC50 (read off the curve) [5]: ~0.3 nM | EC50 (read off the curve) [6]: ~1 nM
B1: 93-VH-6 (VHH)
VHH: EVQLVESGGGLVQPGGSLRLSCAASGFTFTFRHYVMGWFRQAPGKEREFVAAISWSGSGSYYADSVKGRFTISRDNSKNTVYLQMNSLRAEDTAVYYCAADMTTRMSQASREYDYWGQGTLVTVSS
notes: Humanized anti-PD-L1 single domain antibody; the assays imply a human Fc part that is not described; also called PD-L1 Ab (93-VH6); 93-VH6 sdAb

EC50 (read off the curve) [1]: ~0.3 nM | EC50 (read off the curve) [7]: ~0.3 nM | EC50 (read off the curve) [2]: ~0.009 nM | EC50 (read off the curve) [8]: ~0.009 nM
B2: 112-VH47 (VHH)
VHH: EVQLVESGGGLVQPGGSLRLSCAASGFTFSSGTQFSDSKIDWYRQAPGKGLVWVAGIFSTGSTIYEDSVKGRFTISRDNAKNTGYLQMNSLRAEDTAVYYCRVIGRGILAWGQGTLVTVSS
notes: Humanized anti-PD-L1 single domain antibody

binding result [9]: binds | IC50 (read off the curve) [10]: ~1 nM
B3: 13H3-L-93VH6-IgG1 (bispecific antibody)
heavy: not shown
light: DIVMTQSPDSLAVSLGERATINCKSSQSVLYAGNNRNYLAWYQQKPGQPPKLLINQASTRASGVPDRFSGSGSGTEFTLIISSLQAEDVAIYYCQQYYTPPLAFGGGTKLEIKGGGGSGGGGSGGGGSGGGGSEVQLVESGGGLVQPGGSLRLSCAASGFTFTFRHYVMGWFRQAPGKEREFVAAISWSGSGSYYADSVKGRFTISRDNSKNTVYLQMNSLRAEDTAVYYCAADMTTRMSQASREYDYWGQGTLVTVSSRTVAAPSVFIFPPSDEQLKSGTASVVCLLNNFYPREAKVQWKVDNALQSGNSQESVTEQDSKDSTYSLSSTLTLSKADYEKHKVYACEVTHQGLSSPVTKSFNRGEC
notes: Symmetric 'two to two' anti-CD47/PD-L1 bispecific

EC50 (read off the curve) [11]: ~0.01 nM | EC50 (read off the curve) [7]: ~0.4 nM | EC50 (read off the curve) [8]: ~0.02 nM
B4: TIGIT-Fc-112-VH47 (bispecific antibody, human IgG1, kappa)
heavy: not shown
light: DIVMTQSPSSLSASVGDRVTITCKASQDVDTAVAWYQQKPGKAPKLLIYWASARHTGVPSRFSGSGSGTDFTFTISSLQPEDIATYYCQQYSNYPLTFGQGTKLEIKRTVAAPSVFIFPPSDEQLKSGTASVVCLLNNFYPREAKVQWKVDNALQSGNSQESVTEQDSKDSTYSLSSTLTLSKADYEKHKVYACEVTHQGLSSPVTKSFNRGEC
